Reference: US20240100159A1, “USE OF IL-7R-ALPHA-GAMMA AGONIST PEPTIDES IN CELL MANUFACTURING” (MEDIKINE, INC., priority 2022, published 2024)
Ends that are not written are not given here.

B1: SEQ ID NO 320 (peptide)
peptide: RTGVECQDWHGVELCWPVWE
modifications: not fully specified (bridges); cysteine pairing not given here
notes: also called Rγc ligand
B2: SEQ ID NO 321 (peptide)
peptide: GYGVVCEDFRGVELCWLERK
modifications: not fully specified (bridges); cysteine pairing not given here
notes: also called Rγc ligand
B3: SEQ ID NO 323 (peptide)
peptide: ILCEEWQGVELCWLEGGGS
modifications: not fully specified (bridges); cysteine pairing not given here
notes: also called Rγc ligand
B4: SEQ ID NO 300 (peptide)
peptide: RLGVECQEWEGVDLCWISAF
modifications: not checked
B5: SEQ ID NO 292 (peptide)
peptide: PYGVVCQDWAGVELCWVENR
modifications: not checked
B6: SEQ ID NO 308 (peptide)
peptide: VVCQEWEGVELCWQTGPGAHA
modifications: not checked
B7: SEQ ID NO 305 (peptide)
peptide: GPEVVCEEFNRVELCWVEYN
modifications: not checked
B8: SEQ ID NO 290 (peptide)
peptide: GLEIACEDWYGVELCWLRRA
modifications: not checked
B9: SEQ ID NO 296 (peptide)
peptide: RVQVECEDWNGVELCWPVRV
modifications: not checked
B10: SEQ ID NO 294 (peptide)
peptide: INCQTWNGVELCWVDEGLYQ
modifications: not checked
B11: SEQ ID NO 303 (peptide)
peptide: TDEVSCQEWEGVELCWIERQ
modifications: not checked
B12: SEQ ID NO 312 (peptide)
peptide: TAEVVCQEWDGVELCWIEVL
modifications: not checked
B13: SEQ ID NO 291 (peptide)
peptide: GYGVLCQEWQGVELCWPVQREAGV
modifications: not checked
B14: SEQ ID NO 299 (peptide)
peptide: RPEVVCQEWEGVELCWISPL
modifications: not checked
B15: SEQ ID NO 316 (peptide)
peptide: HSTVICQDWDGVELCWIEND
modifications: not checked
B16: SEQ ID NO 318 (peptide)
peptide: SVEVVCEEWHGVELCWPVFI
modifications: not checked
B17: SEQ ID NO 304 (peptide)
peptide: PVEVRCQEWEGVELCWVVGI
modifications: not checked
B18: SEQ ID NO 311 (peptide)
peptide: QLGVECQNWRGVELCWVSEI
modifications: not checked
B19: SEQ ID NO 297 (peptide)
peptide: DRQVVCEEWDGVELCWIEES
modifications: not checked
B20: SEQ ID NO 313 (peptide)
peptide: SPSIVCEEWAGVELCWVDYS
modifications: not checked
B21: SEQ ID NO 314 (peptide)
peptide: AVCQDWYGVELCWCMQDILD
modifications: not checked
B22: SEQ ID NO 315 (peptide)
peptide: VECEEWGGVELCWLADEVMW
modifications: not checked
B23: SEQ ID NO 319 (peptide)
peptide: RWAVSCQDWQGIELCWPEWD
modifications: not checked
B24: SEQ ID NO 306 (peptide)
peptide: KYIVECQEWGGVELCWPEMV
modifications: not checked
B25: SEQ ID NO 309 (peptide)
peptide: IVCEEYNGVELCWVETSVKP
modifications: not checked
B26: SEQ ID NO 310 (peptide)
peptide: EQQVVCQEWNGVELCWIEAG
modifications: not checked

Target: T1, hu-IL-7Rγc subunit (human, UniProt P31785 23-262, limits assumed)
T1 construct: also called human Rγc subunit; common γc receptor
T1 sequence (looked up): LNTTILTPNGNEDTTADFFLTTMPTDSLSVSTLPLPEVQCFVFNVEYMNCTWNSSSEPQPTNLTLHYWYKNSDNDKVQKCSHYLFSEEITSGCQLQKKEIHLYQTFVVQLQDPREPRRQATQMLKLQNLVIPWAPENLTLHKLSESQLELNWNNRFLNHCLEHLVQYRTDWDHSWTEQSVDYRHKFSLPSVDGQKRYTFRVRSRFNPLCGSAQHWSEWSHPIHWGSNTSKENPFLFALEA

IC50, < 100 µM:
B1, B2, B3

Target: T2, hu-IL-7Rγc subunit (human), P31785
T2 chain: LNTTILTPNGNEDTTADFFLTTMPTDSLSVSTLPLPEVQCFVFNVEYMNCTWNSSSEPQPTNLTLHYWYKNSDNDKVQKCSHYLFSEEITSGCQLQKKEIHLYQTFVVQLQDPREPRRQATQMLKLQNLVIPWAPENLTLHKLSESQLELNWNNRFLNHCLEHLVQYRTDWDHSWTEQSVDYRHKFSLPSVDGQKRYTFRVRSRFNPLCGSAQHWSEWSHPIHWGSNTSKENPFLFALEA

IC50, < 100 µM:
B4, B5, B6, B7, B8, B9, B10, B11, B12, B13, B14, B15, B16, B17, B18, B19, B20, B21, B22, B23, B24, B25, B26
